Values belong to the binder of their own block, whether it stands above or below them. Where no end group is shown, it is not given here. The star is where a group is joined. FITC = O=C1OC2(c3ccc(O)cc3Oc3cc(O)ccc32)c2ccc(NC(=S)*)cc21
Experiments:
[1] = target: T1, human COP1 β-propeller (376-731) (human, UniProt Q8NHY2 376-731); test: fluorescence polarisation
[2] = target: T1, human COP1 β-propeller (376-731); test: fluorescence polarisation; remark: listed apart in the source

T1 sequence (Q8NHY2 376-731): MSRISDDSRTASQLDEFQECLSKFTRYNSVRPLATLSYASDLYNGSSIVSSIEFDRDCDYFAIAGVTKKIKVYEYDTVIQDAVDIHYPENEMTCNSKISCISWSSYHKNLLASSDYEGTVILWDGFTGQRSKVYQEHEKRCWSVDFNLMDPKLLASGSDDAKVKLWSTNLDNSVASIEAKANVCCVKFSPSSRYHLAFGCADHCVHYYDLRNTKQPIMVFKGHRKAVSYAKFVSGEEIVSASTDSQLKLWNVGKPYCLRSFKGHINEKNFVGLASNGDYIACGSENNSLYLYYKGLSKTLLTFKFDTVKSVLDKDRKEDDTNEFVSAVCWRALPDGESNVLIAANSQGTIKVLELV

binding result [1]: binds
B1: Trib1 molecule containing residues 83-372 (domain or fragment, human, UniProt Q96RU8 83-372, looked up)
chain: GSAPGPSRIADYLLLPLAEREHVSRALCIHTGRELRCKVFPIKHYQDKIRPYIQLPSHSNITGIVEVILGETKAYVFFEKDFGDMHSYVRSRKRLREEEAARLFKQIVSAVAHCHQSAIVLGDLKLRKFVFSTEERTQLRLESLEDTHIMKGEDDALSDKHGCPAYVSPEILNTTGTYSGKAADVWSLGVMLYTLLVGRYPFHDSDPSALFSKIRRGQFCIPEHISPKARCLIRSLLRREPSERLTAPEILLHPWFESVLEPGYIDSEIGTSDQIVPEYQEDSDISSFFC

Kd [2]: 0.25 ± 0.04 µM
B2: FITC-SEIGTSDQIVPEYQEDSDI (peptide)
peptide: {FITC}-SEIGTSDQIVPEYQEDSDI

Reference: article PMC4856590 (Structure (London, England : 1993), 2016)
